Results from patent publication US20030175712A1 (published 2003).

Legend:
[1] = target: T1, Cdc24-m1p (1-288 aa), GAL4 two-hybrid fusion (S. cerevisiae, UniProt P11433 1-288); assay: yeast two-hybrid, growth on -leu-trp-his
T1 construct: also called cdc24-m1 (1-288)
T1 sequence: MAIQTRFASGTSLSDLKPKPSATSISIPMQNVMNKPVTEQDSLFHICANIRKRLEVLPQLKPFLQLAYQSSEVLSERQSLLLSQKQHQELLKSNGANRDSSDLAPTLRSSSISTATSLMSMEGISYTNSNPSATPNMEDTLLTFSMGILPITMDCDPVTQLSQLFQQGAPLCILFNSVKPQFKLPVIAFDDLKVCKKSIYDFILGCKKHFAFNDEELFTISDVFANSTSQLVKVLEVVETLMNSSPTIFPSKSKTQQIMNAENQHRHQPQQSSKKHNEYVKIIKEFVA
Method: (§1) Plasmids were transformed into HF7c. For determination of STE18 requirement, PCR-based geene disruption was carried out in PJ69-4A (MATa, trp1-901, leu2-3,112, ura3-52, his3-200, gal4D, gal80D, GAL2-ADE2, LYS2::GAL1-HIS3, met2::GAL7-lacZ)²⁹, replacing the entire STE18 ORF with K. Lactis URA3³⁰. For all two-hybrid experiments, equal amounts of transfonnants were spotted on SC-leu-trp and SC-leu-trp-his plates, identical results were obtained with at least four transformants, and for Dste18 two independent deletion strains. All strains for two-hybrid analyses expressed similar amounts of AD- and DBD- fusion proteins of the expected sizes, as determined by SDS-PAGE and immuno-blotting.
(§2) cdc24-m mutants are defective in mating and Ste4p (Gβ) binding. a, Location of Cdc24p mating mutations. Mating patches show diploids from mating with MATa WT tester. Ste4 2-H patch growth on -leu-trp-his indicates an interaction of Cdc24p (1-288 aa) with Ste4p. Similar results were obtained using a LacZ reporter in strain Y187 (relative Miller Units 100 for Cdc24/Ste4 and 3 for Cdc24-m1/Ste4). b, Two hybrid interactions of Cdc24p. Fror interactions with Ste4p, a fragment of Cdc24p (1-288 aa) was used, however, fill length Cdc24p also interats with Ste4p. c, Region of Cdc24p necessary for Ste4p interaction. […]

[2] = target: T2, Cdc24-m3p (1-288 aa), GAL4 two-hybrid fusion (S. cerevisiae, UniProt P11433 1-288); assay: yeast two-hybrid, growth on -leu-trp-his
T2 sequence: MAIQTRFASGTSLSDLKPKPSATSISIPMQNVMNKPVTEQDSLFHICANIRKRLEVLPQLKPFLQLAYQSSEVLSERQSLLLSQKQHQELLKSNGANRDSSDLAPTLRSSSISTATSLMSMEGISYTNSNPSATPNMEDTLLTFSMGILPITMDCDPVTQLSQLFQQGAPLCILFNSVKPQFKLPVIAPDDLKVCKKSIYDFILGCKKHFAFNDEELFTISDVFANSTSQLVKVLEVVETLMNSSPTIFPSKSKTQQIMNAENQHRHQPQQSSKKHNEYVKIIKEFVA
Method: as §1, §2

[3] = target: T3, Cdc24p (1-160 aa) fused to GAL4 DBD (S. cerevisiae, UniProt P04386 1-147; P11433 1-160); assay: yeast two-hybrid, Cdc24p fragments fused to DBD
T3 construct: also called amino-terminal fragment consisting of the first 160 amino acid residues
Method: as §1, §2

GSTCdc24p (1-127 aa) = target: T4, GSTCdc24p (1-127 aa) (S. cerevisiae, UniProt P11433 1-127); assay: GSH-agarose pull-down from mixed bacterial extracts, immunoblot
T4 construct: not shown: glutathione-S-transferase as encoded by pGEX-2T (Pharmacia)
T4 sequence (looked up): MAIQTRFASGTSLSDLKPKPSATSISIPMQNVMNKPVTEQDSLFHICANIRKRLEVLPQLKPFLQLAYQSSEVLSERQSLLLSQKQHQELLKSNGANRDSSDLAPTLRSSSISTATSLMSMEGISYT
Method: (§3) A fragment of CDC24 (1-472 aa) in pGEX-2T (Pharmacia) and His₆Ste4p (pTrcSte4) were expressed in E. coli. Cells were resuspended in buffer A (PBS, 0.1% TX-100, Phenyl Methyl Sulfonyl Fluoride (PMSF), leupeptin, chymostatin, pepstatin, aprotinin) and lysed by snap freezing in liquid nitrogen followed by sonicatioin. Insoluble material was removed by centrifuigation (10,000 g). Mixed supernatants (denoted cell extracts) containing His₆Ste4 and GSTCdc24 fusions were incubated with GSH-agarose (Sigma Chemical Co.) at 4° for 1 hr. Resin was washed 3 times with buffer A. Resin samples (referred to as eluates) and extracts were analyzed by SDS-PAGE, immuno-blottinig probed with Omni-probe anti-sera (Santa Cruz), and visualised with enhanced chemiluhniuescence (Amershan).
as §2

GST = target: T5, GST (UniProt P08515 1-218 = GST); assay: as above
T5 construct: Control; also called GST alone; glutathione-S-transferase
T5 sequence (P08515 whole entry): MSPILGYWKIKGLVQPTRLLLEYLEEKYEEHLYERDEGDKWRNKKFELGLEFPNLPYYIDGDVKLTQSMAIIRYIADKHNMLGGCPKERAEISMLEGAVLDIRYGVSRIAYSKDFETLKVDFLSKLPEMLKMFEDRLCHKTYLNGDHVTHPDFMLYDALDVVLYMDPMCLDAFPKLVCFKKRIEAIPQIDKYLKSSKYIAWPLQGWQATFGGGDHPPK
Method: as §3, §2

B1: Ste4p, GAL4 two-hybrid fusion (other, not shown: small tags and cut ends)
chain: MAHQMDSITYSNNVTQQYIQPQSLQDISAVEEEIQNKIEAARQESKQLHAQINKAKHKIQDASLFQMANKVTSLTKNKINLKPNIVLKGHNNKISDFRWSRDSKRILSASQDGFMLIWDSASGLKQNAIPLDSQWVLSCAISPSSTLVASAGLNNNCTIYRVSKENRVAQNVASIFKGHTCYISDIEFTDNAHILTASGDMTCALWDIPKAKRVREYSDHLGDVLALAIPEEPNLENSSNTFASCGSDGYTYIWDSRSPSAVQSFYVNDSDINALRFFKDGMSIVAGSDNGAINMYDLRSDCSIATFSLFRGYEERTPTPTYMAANMEYNTAQSPQTLKSTSSSYLDNQGVVSLDFSASGRLMYSCYTDIGCVVWDVLKGEIVGKLEGHGGRVTGVRSSPDGLAVCTGSWDSTMKIWSPGYQ
notes: also called Gβ
binding result [1]: no binding | binding result [2]: no binding | binding result [3]: no binding

B2: His6Ste4p (other)
chain: MAHQMDSITYSNNVTQQYIQPQSLQDISAVEEEIQNKIEAARQESKQLHAQINKAKHKIQDASLFQMANKVTSLTKNKINLKPNIVLKGHNNKISDFRWSRDSKRILSASQDGFMLIWDSASGLKQNAIPLDSQWVLSCAISPSSTLVASAGLNNNCTIYRVSKENRVAQNVASIFKGHTCYISDIEFTDNAHILTASGDMTCALWDIPKAKRVREYSDHLGDVLALAIPEEPNLENSSNTFASCGSDGYTYIWDSRSPSAVQSFYVNDSDINALRFFKDGMSIVAGSDNGAINMYDLRSDCSIATFSLFRGYEERTPTPTYMAANMEYNTAQSPQTLKSTSSSYLDNQGVVSLDFSASGRLMYSCYTDIGCVVWDVLKGEIVGKLEGHGGRVTGVRSSPDGLAVCTGSWDSTMKIWSPGYQ
notes: Expressed in E. coli; migrates as a doublet due to proteolysis; also called Hexahistidine-tagged Ste4p; pTrcSte4; not shown: hexahistidine tag with the leader of the pTrc vector
binding result (GSTCdc24p (1-127 aa)): no binding | binding result (GST): no binding
